For the assay, the target named is PF-4 in cynomolgus monkey plasma (cynomolgus monkey). As to the kind of experiment: aligned sandwich ELISA, cyno plasma. In general terms: An ELISA detects its analyte on a solid surface through an enzyme-linked reagent.

From US20240075114A1 come the findings set out here.

Regarding “monoclonal anti-HPF4 antibody (Abcam cat. no.: ab49735)”, the AUC Ratio vs anti-HPF4 worked out at 1 and the anti-HPF4 AUC mean is 2.9.
